The text below walks through data of paper PMC7211764.

The assay deals with wild-type A3A 1-199 (APOBEC3A) (human) (UniProt P31941). The assay can be described thus: SEC. Background: Size exclusion chromatography separates by hydrodynamic size, large species first.

wild-type A3A 1-199 (APOBEC3A), P31941 1-199 (enzyme; other documents disagree on this pair), sequence (P31941 whole entry): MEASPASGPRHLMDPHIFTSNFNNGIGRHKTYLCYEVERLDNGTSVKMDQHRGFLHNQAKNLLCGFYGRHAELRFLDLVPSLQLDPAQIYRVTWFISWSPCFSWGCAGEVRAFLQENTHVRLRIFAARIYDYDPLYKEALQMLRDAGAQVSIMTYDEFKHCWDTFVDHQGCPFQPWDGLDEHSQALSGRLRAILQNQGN

“wild-type A3A 1-199 (APOBEC3A), P31941 1-199 (enzyme; other documents disagree on this pair)” had a stoichiometry N of 2.

As usually defined, the stoichiometry N is the number of molecules, sites or subunits per partner or assembly.
